Key:
[1] = target: T1, 人TIM-1 (human, UniProt Q96D42 21-295, limits assumed); experiment: ELISA, plate coated with human TIM-1
T1 sequence (looked up): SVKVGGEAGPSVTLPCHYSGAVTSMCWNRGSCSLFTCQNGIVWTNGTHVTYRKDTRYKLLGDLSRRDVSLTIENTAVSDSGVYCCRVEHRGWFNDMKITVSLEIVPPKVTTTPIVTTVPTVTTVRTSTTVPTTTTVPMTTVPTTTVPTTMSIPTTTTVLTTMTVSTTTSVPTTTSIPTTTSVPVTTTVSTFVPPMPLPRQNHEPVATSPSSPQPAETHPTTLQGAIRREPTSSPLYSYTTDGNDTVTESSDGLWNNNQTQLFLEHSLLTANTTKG

[2] = target: T2, 人TIM-4 (human, UniProt Q96H15 25-314, limits assumed); experiment: ELISA, plate coated with human TIM-4
T2 sequence (looked up): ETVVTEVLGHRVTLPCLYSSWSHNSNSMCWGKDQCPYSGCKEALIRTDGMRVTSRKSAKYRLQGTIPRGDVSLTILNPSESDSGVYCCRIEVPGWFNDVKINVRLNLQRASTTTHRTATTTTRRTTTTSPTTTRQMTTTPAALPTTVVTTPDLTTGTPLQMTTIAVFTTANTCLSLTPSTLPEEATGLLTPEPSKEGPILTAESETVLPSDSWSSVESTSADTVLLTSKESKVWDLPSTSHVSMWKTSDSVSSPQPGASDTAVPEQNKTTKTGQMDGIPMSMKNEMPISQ

B1: W3402-2.131.17-z3 (antibody, V domains shown)
VH: QVQLQESGPGLVKPSETLSLTCTVSGFSLTNYGVGWIRQPPGKGLEWIGIMTSGGSTYYNSALRARVTINRDTSKNQFSLKLSSVTAADTAVYYCTRDGTTVETLFDYWGQGTMVTVSS
VL: DIVMTQTPLSLSVTPGQPASISCRSSQSLSDSAGITYLYWYLQKPGQSPQLLIYLASNLGSGVPDRFSGSGSGTDFTLKISRVEAEDVGVYYCMQGIHVPLTFGQGTKLEIK
notes: Humanized monoclonal antibody with a kappa light chain; also called W3402-z3; 人源化变体W3402-z3
binding result [1]: no binding
binding result [2]: no binding
